As usually defined, the EC50 (read off the curve) is the concentration needed to bring the measured effect to its halfway point. As a reminder, the Kd is the equilibrium constant for the complex coming apart. Broadly, the koff is a measure of how fast the partners let go of each other. What is called kon is the rate constant with which the complex forms.

Data on three molecules can be found in patent publication US20230227572A1 (HEFEI TG IMMUNOPHARMA, published 2023).

Assay [1] addresses T1, recombinant human PVRIG-human IgG1 Fc fusion protein (human).
T1 construct: no linker is told; also called human PVRIG-Fc fusion protein
Description: ELISA, plate coated with human PVRIG-human IgG1 Fc at 1.0 µg/ml, HRP goat anti-mouse IgG, OD450. The procedure:
The activity of the murine antibodies from different clones in binding to the human PVRIG-Fc fusion protein was evaluated by ELISA. The experimental procedure was as follows:
The recombinant human PVRIG-human IgG1 Fc fusion protein was diluted to 1.0 μg/ml in 1×PBS (phosphate buffer), the dilution was plated onto a 96-well ELISA plate overnight at 4° C. by 100 μl/well, the plate was washed 3 times with PBST (0.05% Tween20-PBS) and blocked with 1% BSA, followed by incubation at 37° C. for 2 h. The plate was washed 3 times with PBST, and murine antibodies (Antibody 1, Antibody 2, Antibody 3, or Antibody 4) diluted in multiple ratios were respectively added to set 8 concentrations, and the mixture was incubated at 37° C. for 1 h using mouse IgG1 (available from Biolegend) as a negative control at 100 μl/well. The plate was washed 3 times with PBST, and 100 μl of horseradish peroxidase (HRP)-labeled goat anti-mouse IgG antibody (available from BOSTER, 1:10,000 dilution) was added to each well, and the mixture was incubated at 37° C. for 1 h. After washing, 100 μl of TMB substrate solution was added to each well for developing for 10 to 15 min in the dark, 100 μl of stop solution (2M H2SO4) was added to each well, the solution was measured with a microplate reader immediately after the reaction stopped, and the absorbance at 450 nm (OD450) was read.
A general note: ELISA stands for enzyme-linked immunosorbent assay.
Target sequence in this assay (chain, as listed by the source limits assumed): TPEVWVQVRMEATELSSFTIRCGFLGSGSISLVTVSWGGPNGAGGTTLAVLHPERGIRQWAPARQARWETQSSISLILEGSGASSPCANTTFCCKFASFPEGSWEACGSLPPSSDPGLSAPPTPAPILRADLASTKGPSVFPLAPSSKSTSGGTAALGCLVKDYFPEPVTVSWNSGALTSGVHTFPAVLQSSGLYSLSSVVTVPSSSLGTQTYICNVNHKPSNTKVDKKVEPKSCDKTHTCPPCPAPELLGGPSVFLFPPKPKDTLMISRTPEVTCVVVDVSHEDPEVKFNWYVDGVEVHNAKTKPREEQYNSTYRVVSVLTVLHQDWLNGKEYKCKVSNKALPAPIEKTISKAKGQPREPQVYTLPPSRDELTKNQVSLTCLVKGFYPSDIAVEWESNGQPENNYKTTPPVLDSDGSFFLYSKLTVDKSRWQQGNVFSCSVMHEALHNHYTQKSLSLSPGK

Assay [2] deals with T1, recombinant human PVRIG-human IgG1 Fc …. Put plainly: SPR (Biacore), human PVRIG-human IgG1 Fc on chip, antibody in flow, 1:1 model. The procedure:
The binding kinetics and dissociation equilibrium constant (KD) of the antibodies of the present disclosure to human PVRIG were determined using the surface plasmon resonance (Biacore) assay. Briefly, a CMS chip was coated with human PVRIG-human IgG1 Fc fusion protein, and after being blocked, antibody solutions of different concentrations passed through the CMS chip at a fixed flow rate and bound to antigen for 2 min, followed by transfer to dissociation buffer for 6 min for determination of the dissociation rate. The kinetics were analyzed using a 1:1 binding model.
In general terms: In SPR one partner is held on a chip, and binding of the other changes the refractive index at the surface.

The target of assay [3] is T2, human PVRIG protein on the cell membrane surface (human, UniProt Q6DKI7 41-326).
T2 construct: Also used here for the natural PVRIG on NKG cells and human lymphocytes; also called 293T-human PVRIG cell line; PVRIG on NKG cell line
T2 sequence: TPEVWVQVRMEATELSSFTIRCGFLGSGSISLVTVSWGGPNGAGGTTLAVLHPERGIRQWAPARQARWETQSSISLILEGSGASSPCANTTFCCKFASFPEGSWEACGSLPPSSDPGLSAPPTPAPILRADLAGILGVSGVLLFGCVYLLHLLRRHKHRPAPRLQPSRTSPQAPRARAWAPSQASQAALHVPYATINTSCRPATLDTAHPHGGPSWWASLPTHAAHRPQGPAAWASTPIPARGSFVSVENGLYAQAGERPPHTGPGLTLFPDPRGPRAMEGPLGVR
Put plainly: flow cytometry on 293T-human PVRIG cells, AF647 goat anti-mouse IgG, percent positive cells. The protocol: The activity of murine antibodies from different clones in binding to human PVRIG protein on the cell membrane surface was evaluated by flow cytometry. The experimental procedure was as follows:
The 293T-human PVRIG cell line was harvested, washed with 1×PBS and resuspended, the cells were counted. Then […] were placed into each 1.5 ml Ep tube, the respective murine antibody (Antibody 1, Antibody 2, Antibody 3, or Antibody 4) was added at different concentrations, the mixture was incubated at 4° C. for 30 min, then washed with 1×PBS, and centrifuged at 3,500 rpm for 5 min to harvest the cells. The cell pellet was resuspended in 100 μl of 1×PBS, a AF647-labeled goat anti-mouse IgG antibody (available from Biolegend) was added, the mixture was incubated at 4° C. for 30 min in the dark, followed by washing twice with 1×PBS and harvesting the cells by centrifugation at 3,500 rpm for 5 min. The cell pellet was resuspended with 200 μl of 1×PBS and measured using a flow cytometer (BD LSR II).

For assay [4], the target named is T3, recombinant Macaca fascicularis PVRIG-human IgG1 Fc fusion protein (Macaca fascicularis; human).
T3 construct: Prepared 'in a similar manner' to the human PVRIG fusion
Put plainly: ELISA, plate coated with Macaca fascicularis PVRIG-human IgG1 Fc at 1.0 µg/ml, HRP goat anti-mouse IgG, OD450. The procedure: The activity of the murine antibody in binding to the Macaca fascicularis PVRIG was evaluated by an ELISA method. The experimental procedure was as follows:
The recombinant Macaca fascicularis PVRIG-human IgG1 Fc fusion protein was diluted to 1.0 μg/ml in 1×PBS (phosphate buffer), the dilution was placed in a 96-well ELISA plate overnight at 4° C. by 100 μl/well, the plate was washed 3 times with PBST (0.05% Tween20-PBS) and blocked with 1% BSA, and the mixture was incubated for 2 h at 37° C. The plate was washed 3 times with PBST, and the murine antibody (Antibody 4) diluted in multiple ratios were respectively added to set 11 concentrations, and the mixture was incubated at 37° C. for 1 h using mouse IgG1 as a negative control at 100 μl/well. The plate was washed 3 times with PBST, 100 μl of horseradish peroxidase (HRP)-labeled goat anti-mouse IgG antibody (available from BOSTER, 1:10,000 dilution) was added to each well, and the mixture was incubated at 37° C. for 1 h. After washing, 100 μl of TMB substrate solution was added to each well for developing for 10 to 15 min in the dark, 100 μl of stop solution (2M H2SO4) was added to each well, the solution was measured with a microplate reader immediately after the reaction stopped, and the absorbance at 450 nm (OD450) was read. […]

Assay [5] has as its target T1, recombinant human PVRIG-human IgG1 Fc …. Description: flow cytometry blocking assay: antibody plus 10 µg/ml Fc fusion protein on 293T-human CD112 cells, AF647 anti-human IgG-Fc; y axis Human PVRIG-Fc fusion protein binding (%); blocked ligand: human CD112 on the cells. The procedure:
The activity of murine antibodies from different clones in blocking the binding of the human PVRIG to its ligand CD112 was evaluated by flow cytometry. The experimental procedure was as follows:
The 293T-human CD112 cell line was harvested, and washed resuspended with 1×PBS to count the cells. […] The cell pellet was resuspended in 100 μl of 1×PBS, a AF647-labeled mouse anti-human IgG-Fc antibody (available from Biolegend) was added, the mixture was incubated at 4° C. for 30 min in the dark, followed by washing twice with 1×PBS and harvesting the cells by centrifugation at 3,500 rpm for 5 min. The cell pellet was resuspended with 200 ul of 1×PBS and measured using a flow cytometer (BD LSR II).

For assay [6], the target named is T2, human PVRIG protein on the cell …. Put plainly: flow cytometry on 293T-human PVRIG cells, AF647 mouse anti-human IgG-Fc, percent positive cells. The protocol: The activity of the humanized antibodies in binding to human PVRIG was evaluated by flow cytometry in the experiment.
The 293T-human PVRIG cell line was harvested, and washed and resuspended with 1×PBS to count the cells. Then 2×10^5 cells were placed into each 1.5 ml Ep tube, the respective humanized antibody was added at different concentrations, the mixture was incubated at 4° C. for 30 min, then washed with 1×PBS, and centrifuged at 3,500 rpm for 5 min to harvest the cells. The cell pellet was resuspended in 100 μl of 1×PBS, a AF647-labeled mouse anti-human IgG-Fc antibody (available from Biolegend) was added, the mixture was incubated at 4° C. for 30 min in the dark, followed by washing twice with 1×PBS and harvesting the cells by centrifugation at 3,500 rpm for 5 min. The cell pellet was resuspended with 200 μl of 1×PBS and measured using a flow cytometer (BD LSR II), and the analysis statistical results were shown in FIG. 16. It can be seen that all the humanized antibodies were ablet to specifically bind to the human PVRIG protein on the cell membrane surface.
(In general: Flow cytometry measures light scatter and fluorescence of single cells or particles in a stream.)

Changes are numbered by the printed parent chain. Names and notes keep the numbering of the source.

T3 sequence (chain, as listed by the source limits assumed): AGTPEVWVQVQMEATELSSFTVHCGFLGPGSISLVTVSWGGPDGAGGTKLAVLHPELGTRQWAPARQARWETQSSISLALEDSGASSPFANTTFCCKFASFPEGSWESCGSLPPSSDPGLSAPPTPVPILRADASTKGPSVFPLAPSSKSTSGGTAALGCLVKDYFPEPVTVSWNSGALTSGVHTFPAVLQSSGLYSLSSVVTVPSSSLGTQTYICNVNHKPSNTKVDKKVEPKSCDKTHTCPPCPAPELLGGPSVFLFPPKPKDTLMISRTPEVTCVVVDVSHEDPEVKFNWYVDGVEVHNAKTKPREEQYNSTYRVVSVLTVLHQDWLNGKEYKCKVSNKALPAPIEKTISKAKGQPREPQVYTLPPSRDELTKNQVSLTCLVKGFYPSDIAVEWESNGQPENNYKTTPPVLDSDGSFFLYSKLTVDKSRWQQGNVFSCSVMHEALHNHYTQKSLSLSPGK

B1: Antibody 4 (antibody, V domains shown)
VH: QVQLQQSGAELVKPGASVKISCKATGYTFSSFSIEWVKQRPGHGLAWIGEILPGSNSTNYNEKFKGKATFTADTSSNTAYMQLSSLTSEDSAVYYCSSYWFAYWGQGTLVTVSA
VL: DIVMTQSPSSLSVSAGEKVTMSCKSSQSLLNSGNQKNYLAWYQQKPGQPPKLLIYGASTRESGVPDRFTGSGSGTDFTLTISSVQAEDLAVYYCQNAHSYPPTFAAGTKLELK
notes: Murine monoclonal antibody from hybridoma ascites; Used AF647-labelled in several flow cytometry assays; also called murine antibody (Antibody 4); murine Antibody 4
For the molecule B1, in assay [1], the “EC50 (read off the curve)” value is around 0.02 µg/mL. In assay [2], the Kd was at most 4.1 pM, the off-rate (koff) was at most 1e-06 s⁻¹ and the kon was 244000 M⁻¹ s⁻¹. The “EC50 (read off the curve)” value in assay [3] was around 0.01 µg/mL. Besides, in assay [4], the “EC50 (read off the curve)” value is around 0.04 µg/mL. For the same molecule, in assay [5], the “IC50 (read off the curve)” value was around 3 µg/mL.

B2: Antibody 4-hu10 (antibody, human IgG4 S228P, kappa, V domains shown)
VH: EVQLVQSGAEVKKPGSSVKVSCKASGYTFSSFSIEWVRQAPGQGLEWIGEILPGSNSTNYNEKFKGRVTFTADTSTNTAYMELSSLRSEDTAVYYCSSYWFAYWGQGTLVTVSS
VL: DIVMTQSPDSLAVSLGERATINCKSSQSLLNSGNQKNYLAWYQQKPGQPPKLLIYGASTRESGVPDRFSGSGSGTDFTLTISSLQAEDVAVYYCQNAHSYPPTFGQGTKLEIKR
notes: Humanized Antibody 4; heavy chain IgG4 with S228P already in the entry
On to B2, for which, in assay [2], the equilibrium dissociation constant (Kd) was at most 4 pM, the dissociation rate constant (koff) was at most 1e-06 s⁻¹ and the association rate constant (kon) was 250000 M⁻¹ s⁻¹. Further, the “EC50 (read off the curve)” value in assay [6] is around 0.0005 µg/mL.

B3: Antibody 4-hu11 (antibody, human IgG4 S228P, kappa, V domains shown)
VH: B2 VH with R67K, V68A
VL: B2 VL
notes: as for B2
Take B3: in assay [2], the Kd was at most 4.22 pM, the koff was at most 1e-06 s⁻¹ and the kon stood at 237000 M⁻¹ s⁻¹. Further, the “EC50 (read off the curve)” value in assay [6] was around 0.003 µg/mL.
